Experiments:
N[C@@H](CO)C(=O)O = test: Michaelis-Menten kinetics of purified mutant enzyme, DTNB assay (KM); format: biochemical, Escherichia coli; settings: mutation far from the active site
[1] = tested on: CC(=O)SCCNC(=O)CCNC(=O)[C@H](O)C(C)(C)COP(=O)(O)OP(=O)(O)OC[C@H]1O[C@@H](n2cnc3c(N)ncnc32)[C@H](O)[C@@H]1OP(=O)(O)O; test: Michaelis-Menten kinetics of purified mutant enzyme, DTNB assay of released CoA (KM); format: biochemical, Escherichia coli; settings: mutation far from the active site

Question: Which Km (N[C@@H](CO)C(=O)O) does the source give for “serine acetyltransferase (CysE) (Escherichia coli K-12; A33T)” here?
Answer: 500 ± 200 µM

Question: What about the Km [1] of the same substance?
Answer: 5000 ± 2000 µM

— PMC7476758, “Underground isoleucine biosynthesis pathways in E. coli” (eLife, 2020)
